Source: patent US20250297232A1, “BACTERIAL MYELOPEROXIDASE-CATALASE AND APPLICATIONS THEREOF” (priority 2022, published 2025)
Entries after “also recorded” stand apart in the source; their conditions may differ.

B1: GOxaspniger: glucose oxidase isolated from Aspergillus niger (e.g. CAS number: 9001-37-0) (protein, UniProt P13006 17-605, looked up)
Glucose oxidase: LPHYIRSNGIEASLLTDPKDVSGRTVDYIIAGGGLTGLTTAARLTENPNISVLVIESGSYESDRGPIIEDLNAYGDIFGSSVDHAYETVELATNNQTALIRSGNGLGGSTLVNGGTWTRPHKAQVDSWETVFGNEGWNWDNVAAYSLQAERARAPNAKQIAAGHYFNASCHGVNGTVHAGPRDTGDDYSPIVKALMSAVEDRGVPTKKDFGCGDPHGVSMFPNTLHEDQVRSDAAREWLLPNYQRPNLQVLTGQYVGKVLLSQNGTTPRAVGVEFGTHKGNTHNVYAKHEVLLAAGSAVSPTILEYSGIGMKSILEPLGIDTVVDLPVGLNLQDQTTATVRSRITSAGAGQGQAAWFATFNETFGDYSEKAHELLNTKLEQWAEEAVARGGFHNTTALLIQYENYRDWIVNHNVAYSELFLDTAGVASFDVWDLLPFTRGYVHILDKDPYLHHFAYDPQYFLNELDLLGQAAATQLARNISNSGAMQTYFAGETIPGDNLAYDADLSAWTEYIPYHFRPNYHGVGTCSMMPKEMGGVVDNAARVYGVQGLRVIDGSIPPTQMSSHVMTVFYAMALKISDAILEDYASMQ
B2: E316A: RbMPO with active site mutation E316A, generated by site-directed mutagenesis (protein)
chain: MLFWSKRTRKHPGRKRRRLRSEQLESRQLLAADFGGYRHNIYDAEDVNDDGRVSAIDALLVINAMTSETSRDENVFTDVNGDGRRSALDALRVINRIERGDVFPIDTSGDEDLNTLLPEMPSEVRSIDGSGNNPNDHLWGSVGQRLIRMAPAAYGDGISTLAGANRPSAREVSNVLSAMNTSQVLNDRGLSAFVYVWGQFIDHDLGLTESDEHGEAIDISVPEGDLWFDPMGSGEAVIPMTRTPIADGTGTSVGNPAQQFNQITAFIDGSMVYGSDAATAERLRTFAGGRLAISDNGLLPMDESGMVIAGDVRASANVGLTAIQTLFVREHNRLADEIFAADPEATDEEIYQRARLVVASLIQSITYNEFLPALLGQRAMDSYRGYDASVNPGIANEFSTAAFRLGHSTLRDEVGFMSNDGRESKDEMELKDAFFHASMLEETGIDSLLKFDASVQAQEIDLAVVDSLRNFLFGPPGAGGLDLVAMNIQRGRDHGLSDYNTTRQAYGLDRVETFDQITGDVELQQKLASLYGTVDNIDLWVGLMAEDHQHDASVGELTGLIIADQFQRTRDGDRFFYKNVLTDSEVESIERSTLADLIERNTSVDGLQENVFFMQVELRGRVILASSIPPNTMPSEVREEEIRGVSGMAIELIDASGKLVDSTVSDQHGNYRFRALSETGDYQVRLSESGEAMDVLVAHGAERIRGLDFIVLA

Experiments:
E. coli ATCC 25922 = assay: Microbicidal activity: counting colonies on Petri dishes; format: cell-based; conditions: 1 h contact with 1.10^6 CFU/mL, 25 mM SCN^−, pH7.4; enzyme alone: wt RbMPO 300 nM or GOxaspniger 25 nM
Description: 10 mL of TSB medium (pH7.4) was inoculated with a freshly obtained colony of E. coli ATCC 25922, and the culture was incubated at 37° C. and 190 rpm overnight. In the morning, 25 mL of TSB medium were inoculated with the previous day's pre-culture to obtain an OD620 nm of 0.07 at TO. When the bacterial culture reached the exponential phase, the bacterial solution was diluted 10-fold in TSB in order to reach 1.10^6 CFU/mL. This dilution was then contacted with the enzyme solution for 1 hour (in a final volume of 1 mL). Further dilutions were then made (10^−1, 10^−4, 10−5, 10^−6). 100 μL of these solutions were spread on a Petri dish containing TSB agar medium and placed at 37° C. overnight. The next day, the surviving colonies were counted and the number of CFU/mL was calculated using the formula below: […]

[1] = Heme reconstitution of apo wt and mutated RbMPOs (tryptophan fluorescence quenching); format: binding; conditions: heme reconstitution of apo enzyme; 1 μM enzyme, 50 mM sodium phosphate pH7.5, 25° C.
Description: Sample dilutions were performed in a 50 mM pH7.5 sodium phosphate buffer.

[2] = Steady-state kinetics by stopped-flow, NaBr (Tau-NHBr formation, 289 nm); format: biochemical; conditions: 300 nM enzyme, 79 μM H2O2
Description: (§1) pH- and temperature-dependent studies were carried out for each substrate.
(§2) These temperatures were reached by using a stopped-flow coupled to a cryostat.
(§3) For temperature and pH measurements, RbMPO was set at the same concentration as in the determination of steady state kinetics parameters.

[3] = Steady-state kinetics by stopped-flow, NaSCN (hypothiocyanate formation, 240 nm); format: biochemical
Description: as §1, §2, §3

[4] = Chlorination activity with APF probe, NaCl range; format: biochemical; conditions: linear increase of kss, 1 μM RbMPOs, 79 μM H2O2, 10 μM APF
Text: The chlorination activity of myeloperoxidases can be determined using the aminophenyl fluorescein (APF) probe. One can indeed detect the oxidation of APF (non-fluorescent) by HOCl into fluorescein, a fluorescent molecule that is detectable at λex=485 nm and λem=525 nm. According to such test, the fluorescence measured is proportional to the quantity of fluorescein, which itself is proportional to the quantity of HOCl produced by the myeloperoxidase.
Measurements of chlorination activity were herein performed in Corning 384-well clear-bottom (flat-bottom) plates with a reaction volume of 20 μL, in triplicate at 37° C., and in a 50 mM NaPi buffer at pH7.5. […] A 10 to 30 minutes kinetic was performed for each range value and the fluorescence intensity was compared to that of the standard fluorescein range. Thus, the measured fluorescence is proportional to the amount of fluorescein, which in turn is proportional to the amount of HOCl produced by the RbMPOs.
The slopes were measured at the onset of the reaction in order to be in initial velocity. From these values, it was possible to calculate the kss with the following equation: […]
where slopes in FI.pmoles^−1 corresponds to the slope of the fluorescein standard range: 2.95 10^6+1.13 10^5.

Molecule	surviving bacteria (E. coli ATCC 25922)	k2 [1]	activity with Br^− (NaBr range), in words [2]	k2 ([3]; NaSCN range, linear increase of kss, 300 nM enzyme, 79 μM H2O2)	substrate specificity ([3]; from steady-state NaSCN, NaBr and NaCl ranges)	k2 [4]
B1	1,015,000±21,213 CFU/mL					
B2		418+34 M−1 · s−1	lack of RbMPO activity	1936+374 M^−1 · s^−1	active only for SCN^−	no catalytic constant could be determined; also recorded: scatter plot
